Numbering of substitutions follows the chain as printed. In names and notes the source's numbering stands.
What was measured:
[1] = Constant-force optical tweezers folding assay of the wild-type aptamer in 2,6-diaminopurine (DAP); assay type: physicochemical; details: 3 mM Mg^2+; for Folding rate kf / Transition distance ΔX / Unfolding rate ku / ΔG (0): 250 uM DAP; for ΔG (0): zero force
Excerpt: Guanine binds to the aptamer via nucleobases U^22, U^47, U^51 and C^74 in the junction J1/2, J2/3 and J3/1. The hydrogen bonding between C^74 with the functional group in the 6th position of the purine is deterministic for ligand recognition. The purine analog 2,6-diaminopurine (DAP) differs from guanine in having an amino group in the 6th position (FIG. 13), and thus disrupts the hydrogen bonding pattern. […] In order to investigate if the loop-loop dynamics in the guanine-riboswitch are affected with a change in the ligand, mechanical assays in the presence of DAP were performed. […] Furthermore, a near similar L2-L3 kinetics highlighted that the tertiary and the secondary interactions remained unaffected by replacing guanine with DAP (Table 1).
In a constant-force (CF) experiment, the RNA is held at a preset force through feedback control. The preset force typically fluctuated around the mean with a standard deviation ±0.15 pN. In this mode, data is recorded from 4-40 kHz to capture the fast intermediates. The plots are shown as extension vs. time (as in FIG. 6A). In force-jump (FJ) assay, the force is suddenly jumped from one force to another, and then held constant thereafter, as shown in FIGS. 23A-B.
All FR, CF and FJ experiments were carried out at an ambient temperature, 25±0.5° C. The buffer in the microfluidics contained 10 mM Tris-HCl, pH 7.5 at 25° C., 250 mM NaCl, 3 mM MgCl2, and purine concentrations as indicated in wild-type aptamer. Unless stated otherwise, Mg^2+ concentration in the buffer was maintained at 3 mM in all experiments. The buffer in mutant m1 contained 5 mm Mg^2+ and 1 μM G, and in m3 contained 5 mM Mg^2+ and 200 nM Guanine. For the remaining m2, m4, m5 and m6 mutants, the buffer in single-molecule experiments was supplemented only with 3 mM Mg^2+ and 200 nM Guanine.

lac Z expression = assay: β-galactosidase reporter assay (xpt-lacZ fusion); assay type: cell-based, B. subtilis; details: for lac Z expression / transcriptional control (in words): presence and absence of guanine, B. subtilis
Experimental: Kissing-loop mutants were analyzed to determine whether they can exert riboswitch activities by controlling transcription termination, given that the guanine binding was retained in all of them. To test this, a β-galactosidase reporter assay was performed in B.subtilis. […] The gene expression is repressed in wild-type due to the transcription termination in the presence of guanine. […] The fast kissing dynamics between the L2-L3 probably have a stabilizing effect on P1, and therefore an increase in the transcription termination is observed. […] This underscores that the L2-L3 dynamics are directly involved in the P1-helix formation, which affects the terminator hairpin downstream that ultimately results in an alteration of the riboswitch activities.
To assess if the aptamer mutants can exert a transcriptional control similar to the previously reported wild-type xpt-pbuX riboswitch, a xpt-lacZ fusion was constructed as described by Mandal et al., “Riboswitches control fundamental biochemical pathways in Bacillus subtilis and other bacteria”. Cell 113, 577-586 (2003). Briefly, nts −121 to +197 relative to the transcriptional start site of the xpt-pbuX operon from B. subtilis 1A1 (BGSC, Columbus, Ohio) was PCR amplified and cloned upstream of the lacZ reporter gene into pDG1661 vector. After confirming the cloned sequence, plasmid variants were integrated into the amyE locus of the 1A1 strain. Transformants were selected for double markers, specifically for chloramphenicol (5 μg/ml) resistance and sensitivity to spectinomycin (100 μg/ml). Selected B. subtilis colonies were subsequently grown in minimal media (25 g/L K2HPO4·3H2O, 6 g/L KH2PO4, 1 g/L sodium citrate, 0.2 g/l MgSO4·7H2O, 2 g/L Na2SO4, 50 μM FeCl3, 2 μM MnCl2, 50 μg/ml L-Tryptophan, 50 μg/ml L-Lysine, 50 μg/ml L-Methionine, 0.4 g/100 ml glucose, and 0.2 g/100 ml glutamate) at 37° C. with vigorous shaking. Purines were added at a final concentration of 0.1 mg/ml. Cells were harvested at mid-logarithmic growth phase (A600˜0.1-0.4), and resuspended in the above buffer for the reporter assay. The color development was recorded by measuring absorbance, A420 at the end of the reaction with appropriate controls. Data is represented in Miller Units calculated from the following relation:
[formula] where Δt is the total duration taken in the substrate cleavage by […], measured as absorbance, A420. The Miller Units shown in FIG. 4A represents mean±standard deviation from 3 independent experiments, wherein each independent experiment was performed in duplicate.

[2] = in-line probing assay; read-out: KD for guanine; cited from earlier work
[3] = transition BA (P1 folding), F 8.5 pN
[4] = transition C′B (L2-L3 folding), F 8.5 pN
[5] = transition DC (P3 folding), F 12.0 pN
[6] = transition ED (P2 folding), F 13.5 pN

B1: wt: 69-nucleotide full-length wild-type guanine sensing aptamer RNA sequence from xpt-pbuX operon in B. subtilis (SEQ ID NO: 1) (nucleic acid)
chain: CACUCAUAUAAUCGCGUGGAUAUGGCACGCAAGUUUCUACCGGGCACCGUAAAUGUCCGACUAUGGGUG
modifications: RNA, backbone and methylation of C not given here
Equilibrium force F^eq ([1]; transition BA (P1 folding), 250 uM DAP (rates at 8.5 pN)): 9.8 ± 0.1 pN
Folding rate kf [1, 3]: 0.29 ± 0.02 s⁻¹
Transition distance ΔX [1, 3]: 9.7 ± 0.2 nm
Unfolding rate ku [1, 3]: 0.023 ± 0.004 s⁻¹
ΔG (0) ([1]; transition BA (P1 folding), from data at 8.5 pN): −16.6 ± 0.5 kBT
Equilibrium force F^eq ([1]; transition C′B (L2-L3 folding), 250 uM DAP (rates at 8.5 pN)): 8.7 ± 0.2 pN
Folding rate kf [1, 4]: 0.96 ± 0.08 s⁻¹
Transition distance ΔX [1, 4]: 3.6 ± 0.2 nm
Unfolding rate ku [1, 4]: 0.8 ± 0.06 s⁻¹
ΔG (0) ([1]; transition C′B (L2-L3 folding), from data at 8.5 pN): −7.6 ± 0.4 kBT
Equilibrium force F^eq ([1]; transition DC (P3 folding), 250 uM DAP (rates at 12.0 pN)): 12.3 ± 0.02 pN
Folding rate kf [1, 5]: 22.0 ± 0.6 s⁻¹
Transition distance ΔX [1, 5]: 7.5 ± 0.3 nm
Unfolding rate ku [1, 5]: 14.3 ± 0.4 s⁻¹
ΔG (0) ([1]; transition DC (P3 folding), from data at 12.0 pN): −15.5 ± 0.9 kBT
Equilibrium force F^eq ([1]; transition ED (P2 folding), 250 uM DAP (rates at 13.5 pN)): 13.6 ± 0.02 pN
Folding rate kf [1, 6]: 14.7 ± 0.4 s⁻¹
Transition distance ΔX [1, 6]: 7.0 ± 0.2 nm
Unfolding rate ku [1, 6]: 13.4 ± 0.4 s⁻¹
ΔG (0) ([1]; transition ED (P2 folding), from data at 13.5 pN): −16.3 ± 0.7 kBT
lac Z expression / transcriptional control (in words) (lac Z expression): repressed
Kd [2]: ~5 nM

B2: m7: m7 mutant guanine sensing aptamer RNA (SEQ ID NO: 8); U25C in J1/2 (nucleic acid)
chain: B1 chain with U12C
modifications: RNA, backbone and methylation of C not given here
Expression higher than the wild-type (lac Z expression; in the presence of guanine): ~2.5 fold

B3: m1: m1 mutant guanine sensing aptamer RNA (SEQ ID NO: 2); G37 replaced with adenine in the L2 loop (nucleic acid)
chain: B1 chain with G24A
modifications: RNA, backbone and methylation of C not given here
notes: G37 replaced with adenine in the L2 loop
lac Z expression / transcriptional control (in words) (lac Z expression): completely de-repressed

B4: m6: m6 mutant guanine sensing aptamer RNA (SEQ ID NO: 7); U67A, shorter P3 hairpin and larger L3 loop (nucleic acid)
chain: B1 chain with U54A
modifications: RNA, backbone and methylation of C not given here
notes: U67A, shorter P3 hairpin and larger L3 loop
Repression exceeding the wild-type repression (lac Z expression; in the presence of guanine): ~3 fold
lac Z expression / transcriptional control (in words) (lac Z expression): highly repressed

B5: m4: m4 mutant guanine sensing aptamer RNA (SEQ ID NO: 5); A59G/U67C in the P3 hairpin (nucleic acid)
chain: B1 chain with A46G, U54C
modifications: RNA, backbone and methylation of C not given here
notes: A59G/U67C in the P3 hairpin
Expression higher than the wild-type (lac Z expression; in the presence of guanine): ~7 fold
lac Z expression / transcriptional control (in words) (lac Z expression): moderately repressed

Reference: US11905559B2, “Materials and methods for controlling gene expression” (priority 2016, dated 2024)
